Results reported in patent US20210101945A1 (University of Washington, published 2021).

Columns and labels:
[1] = biological target: the molecule itself; test: X-ray crystal structure; homotrimer
Excerpt: (§1) The optimum conditions for crystallization of the different designs were found as follows: 2L6HC3_6, 0.2 M Sodium Fluoride, 0.1 M MES pH 5.5 and 20% PEG 400; 2L6HC3_12, 2.2 M Sodium Malonate pH 5.0; 2L6HC3_13, 0.06 M Citric acid, 0.04 M BIS-TRIS propane pH 4.1 and 16% PEG 3,350; 2L8HC4_12, 0.2 M Sodium Acetate trihydrate, 0.1 M Tris hydrochloride pH 8.5 and 30% PEG 4,000; 3L6HC2_2, 0.1 M Sodium Acetate trihydrate pH 4.5 and 3.0 M Sodium chloride; 2L4HC2_23, 0.2 M Lithium chloride and 20% PEG 3,350; 2L4HC2_9, 0.1 M Sodium citrate tribasic dehydrate […]; 2L4HC2_11, 0.1 M Tris pH 8.5 and 2.0 M Ammonium sulfate; 5L6HC3_1, 0.1 M acid pH 3.5 and 3.0 M Sodium chloride; and 2L4HC2_24 was concentrated to 20 mg/ml and crystallized in 0.1 M Citric acid pH 3.5, 2.0 M Ammonium sulfate. […]
(§2) The crystals of the designed proteins were placed in a reservoir solution containing 15 to 20% (v/v) glycerol, and then flash-cooled in liquid nitrogen. […] All the design structures were determined by the molecular-replacement method with the program PHASER within the Phenix suite using the design models as the initial search model. […] Root-mean-square deviation differences from ideal geometries for bond lengths, angles and dihedrals were calculated with Phenix. The overall stereochemical quality of all final models was assessed using the program MOLPROBITY.

[2] = biological target: the molecule itself; test: oligomeric state of the purified design, and SAXS; antiparallel homodimer
Procedure: (§3) Samples were purified by gel filtration in 20 mM Tris pH 8.0 at room temperature, 150 mM NaCl and 2% glycerol; fractions preceding the void volume of the column were used as blanks for buffer subtraction. Scattering measurements were performed at the SIBYLS 12.3.1 beamline at the Advanced Light Source. The X-ray wavelength (λ) was 1 Å, and the sample-to-detector distance of the Mar 165 detector was 1.5 m, corresponding to a scattering vector q (q=4πsin θ/λ, where 2θ is the scattering angle) range of 0.01 to 0.3 Å−1. Data sets were collected using exposures of 0.5, 1, and 6 seconds at 12 keV. […] For each sample, data was collected for at least two different concentrations to test for concentration-dependent effects; “high” concentration samples ranged from 3-7 mg/ml and “low” concentration samples ranged from 1-2 mg/ml. […] FoXS was used to compare design models to experimental scattering profiles and calculate quality of fit (X) values. For the design models, extra residues introduced by the expression vector were added to the computational models using Rosetta™ Remodel so that the design sequence matched that of the experimental sample. To capture the conformational flexibility of these extra tag residues in solution, 100 independent models were generated per design. These 100 models were then clustered by Rosetta™, and to avoid bias, the cluster center of the largest cluster was selected as the single representative model used for fitting to experimental data.

[3] = biological target: the molecule itself; test: X-ray crystal structure superimposed on the design model; homotrimer
Excerpt: as §1, §2

[4] = biological target: the molecule itself; test: X-ray crystal structure (3.8 Å) and SAXS; homotetramer
Procedure: The crystals of the designed proteins were placed in a reservoir solution containing 15 to 20% (v/v) glycerol, and then flash-cooled in liquid nitrogen. The X-ray data sets were collected at the Berkeley Center for Structural Biology beamlines 5.0.1, 8.2.1 and 8.2.2 of the Advanced Light Source at Lawrence Berkeley National Laboratory (LBNL). Data sets were indexed and scaled using HKL2000. All the design structures were determined by the molecular-replacement method with the program PHASER within the Phenix suite using the design models as the initial search model. The atomic positions obtained from molecular replacement and the resulting electron density maps were used to build the design structures and initiate crystallographic refinement and model rebuilding. Structure refinement was performed using the phenix.refine program. Manual rebuilding using COOT and the addition of water molecules allowed construction of the final models. Root-mean-square deviation differences from ideal geometries for bond lengths, angles and dihedrals were calculated with Phenix. The overall stereochemical quality of all final models was assessed using the program MOLPROBITY.
Samples were purified by gel filtration in 20 mM Tris pH 8.0 at room temperature, 150 mM NaCl and 2% glycerol; fractions preceding the void volume of the column were used as blanks for buffer subtraction. […]

[5] = biological target: the molecule itself; test: SAXS against the parallel homodimer design model
Procedure: (§4) Samples were purified by gel filtration in 20 mM Tris pH 8.0 at room temperature, 150 mM NaCl and 2% glycerol; fractions preceding the void volume of the column were used as blanks for buffer subtraction. Scattering measurements were performed at the SIBYLS 12.3.1 beamline at the Advanced Light Source. The X-ray wavelength (λ) was 1 Å, and the sample-to-detector distance of the Mar 165 detector was 1.5 m, corresponding to a scattering vector q (q=4πsin θ/λ, where 2θ is the scattering angle) range of 0.01 to 0.3 Å−1. Data sets were collected using exposures of 0.5, 1, and 6 seconds at 12 keV. […] For each sample, data was collected for at least two different concentrations to test for concentration-dependent effects; “high” concentration samples ranged from 3-7 mg/ml and “low” concentration samples ranged from 1-2 mg/ml. […] FoXS was used to compare design models to experimental scattering profiles and calculate quality of fit (X) values. For the design models, extra residues introduced by the expression vector were added to the computational models using Rosetta™ Remodel so that the design sequence matched that of the experimental sample. To capture the conformational flexibility of these extra tag residues in solution, 100 independent models were generated per design. […]

[6] = biological target: the molecule itself; test: SAXS against the homotetramer design model
Procedure: as §3

[7] = biological target: the molecule itself; test: oligomeric state and CD of the synthetic peptide in PBS; self-association
[8] = biological target: the molecule itself; test: characterisation of the purified design (method not given); self-association
[9] = biological target: the molecule itself; test: SAXS, design model fit to the scattering data with FoXS
Procedure: as §4

[10] = biological target: the molecule itself; test: X-ray crystal structure; homodimer
Excerpt: as §1, §2

[11] = biological target: the molecule itself; test: X-ray crystal structure superimposed on the design model; homodimer
Excerpt: as §1, §2

B1: 2L6HC3_12 (designed binder)
chain: GTKYELRRALEELEKALQELREMLRKLKESLEELKKNPSEDALVRNNELIVEVLRVIVEVLSIIARVLEINARSD
notes: Monomer subunit of a designed left-handed C3 homotrimer; entries pair it with itself
B1: binds [1].

B2: 2L6Hanti_2 (designed binder)
chain: SEELRKAAENNELAVRLAEAALRMARSALHLFEENPSDEMLKFLELAMEVAKMAAELLKASLKMLKKAAEERGSDESVKYLADKSRDIMRQITEELKKLEEEAKRAQKRGS
notes: Monomer subunit of a designed left-handed antiparallel homodimer; entries pair it with itself
B2: binds [2].

B3: 2L6HC3_6 (designed binder)
chain: GTKYKIKETLKRLEDSLRELRRILEELKEMLERLEKNPDKDVIVEVLKVIVKAIEASVENQRISAENQKALAESD
notes: Monomer subunit of a designed left-handed C3 homotrimer; entries pair it with itself; also called XXBB
B3: binds [3].

B4: 2L8HC4_12 (designed binder)
chain: GTAIEANSRMLKALIEIAKAIWKALWANSLLLEATSRGDTERMRQWAEEAREIYKEAKKIIDEADEIVKEAKERHD
notes: Monomer subunit of a designed left-handed C4 homotetramer; entries pair it with itself; also called lefthanded tetramer
B4: binds [4].

B5: 2L6Hanti_4 (designed binder)
chain: SRRLELAARINKAAAENARSAIEIQELAARLADELSSSKKVIDFARATTEVLRMSVKLLKLSLEMLEEAARQDGRSEEVRYLAEESKKILEEARKALEDADRLTKRIEEEGS
notes: as for B2
B5: binds [2].

B6: 2L6Hanti_3 (designed binder)
chain: SEKARIAVENLEAALRLNRAAAEMQKSAIKIMDDNRSDEKALRYLRLTTKVLRMSVELLRASLELAEKALREEGSDDSAEKVRKEAEEILKESTEILKEADKETKRADEEGS
notes: as for B2
B6: binds [2].

B7: 2L6Hanti_5 (designed binder)
chain: TDVLRIAAENLKAAVELAKAALEMAKSAIEIAKTLTEDDEALKFARAAAEVLRMAAKLLKLSIELARKAAEEEGSDDEVRYILDEARKQADELREALKKVDEIMKELDKRGS
notes: as for B2
B7: binds [2].

B8: 3L6HC2_4 (designed binder)
chain: SALEKIAKLIIEAARLSAELARRAARASAEMARKAIEAVSEERGSESLLKIVADLIVESQEAVVRLIIESQQIAAKLAEDLIRAAKEAASDESKMEEVAKEVQERAERAARDIERKLKRVLEELDYKLKESRDGS
notes: Monomer subunit of a designed parallel right-handed six-helix C2 homodimer; entries pair it with itself
B8: binds [5].

B9: 5L8HC4_2 (designed binder)
chain: SEQLKEIARILIKLIESLTRFILEVARILIELIEETQRLIVASTDSDESELERIARESKKKAKKALDELKKIVDDQRREAKKAIEELEYDGS
notes: Monomer subunit of a designed untwisted C4 homotetramer; entries pair it with itself
B9: binds [6].

B10: 2L6HC3_13_inner (peptide)
peptide: Ac-TERENNYRNEENNRKIEEEIREIKKEIKKNKERD-NH2
notes: Synthetic inner-ring-only peptide; reported as unfolded and monomeric in isolation; also called inner ring peptide of 2L6HC3_13
B10: no binding [7].

B11: 5L6HC3_1 (designed binder)
chain: SEELRAVADLQRLNIELARKLLEAVARLQELNIDLVRKTSELTDEKTIREEIRKVKEESKRIVEEAEEEIRRAKEESRYIADESRGS
notes: Monomer subunit of a designed untwisted C3 homotrimer; entries pair it with itself; also called untwisted trimer
B11: binds [1].

B12: 2L4HC2_9 (designed binder)
chain: GTSDYIIEQIQRDQEEARKKVEEAEERLERVKEASKRGVSSDQLLDLIRELAEIIEELIRIIRRSNEAIKELIKNQS
notes: Monomer subunit (helical hairpin) of a designed left-handed C2 homodimer; entries pair it with itself; Expressed in E. coli with a His tag (C-terminal, or N-terminal and thrombin-cleavable); Underlined residues are said to be optional, but the underlining is not visible
B12: binds [8].

B13: 5L8HC4_6 (designed binder)
chain: GSKDTEDSRKIWEDIRRLLEEARKNSEEIWKEITKNPDTSEIARLLSEQLLEIAEMLVRIAELLSRQTEQR
notes: as for B9
B13: binds [6].

B14: 5L4HC2_12 (designed binder)
chain: GTETKKLVEEVERALRELLKTSEDLVRKVEKALRELLELIRRGGTKDKIEEKIRRVLEEIKRELERQKRKIEDVLRQIKEELYRS
notes: Monomer subunit of a designed untwisted C2 homodimer; entries pair it with itself
B14: binds [9].

B15: 2L4HC2_11 (designed binder)
chain: GSEDYKLREAQRELDKQRKDTEEIRKRLKEIQRLTDERTSTADELIKELREIIRRLQEQSEKLREIIEELEKIIRKR
notes: Monomer subunit of a designed left-handed C2 homodimer; entries pair it with itself
B15: binds [10].

B16: 2L4HC2_24 (designed binder)
chain: GTDTDELLRLAKEQAELLKEIKKLVEEIARLVKEIQEDPSDELLKTLAELVRKLKELVEDMERSMKEQLYIIKKQKS
notes: as for B15
B16: binds [10].

B17: 5L8HC4_1 (designed binder)
chain: GSKVEELLRKSEEAAERAKRELERLLEESERIVAEAQALAEKYESQKVWVRILIELIRATNRMLAEIARILLEMIEVTNRMIAESTK
notes: as for B9
B17: binds [6].

B18: 2L4HC2_23 (designed binder)
chain: GTRTEIIRELERSLREQEELAKRLKELLRELERLQREGSSDEDVRELLREIKELVEEIEKLAREQKYLVEELKRQD
notes: as for B15
B18: binds [11].

B19: 3L6HC2_7 (designed binder)
chain: SILELAHESNRRALEMASRANREAMKAAREMIRAASEAARRAGSSNDKDSLRMIEEALRLALRMIEETNKKAVRMVLENNRKMVEAEKKKLSEEEIKRIAKETEDRMREIARRASEEARRLAEEIKREADYRSGS
notes: as for B8
B19: binds [5].

B20: 2L6Hanti_1 (designed binder)
chain: SDYLRLATEHNKLAVEANRLAIELAKSAVELAETDPSKTALEHAELAARLLEMMVQFTKAAQELTREAIRKEGRNEESEKVLRKSKEAYKESEKALEDARRLLDELRKKGS
notes: Monomer subunit (three helices) of a designed left-handed antiparallel homodimer; entries pair it with itself
B20: binds [2].

B21: 2L6HC3_13 (designed binder)
chain: GTKYELRRALEELEKALRELKKSLDELERSLEELEKNPSEDALVENNRLNVENNKIIVEVLRIIAEVLKINAKSD
notes: Monomer subunit of a designed left-handed C3 homotrimer; entries pair it with itself; also called AAXX
B21: binds [3].
